Bridges are numbered along the chain shown (N, C = ends). Where no end group is shown, it is not given here.
B1: AB.Fab4D5-H4 (Fab, part only; not given: carrier Fab4D5 heavy and light chains, not shown: another chain or arm of the molecule; large carriers)
peptide: {Fab4D5 heavy chain (…CDKTH)}-DICLPRWGCLWED
modifications: disulfide 3-9
B2: AB.Fab4D5-H8 (Fab, part only; not given: carrier Fab4D5 heavy and light chains, not shown: another chain or arm of the molecule; large carriers)
peptide: {Fab4D5 heavy chain (…CDKTH)}-IEDICLPRWGCLWE
modifications: disulfide 5-11
B3: AB.Fab4D5-H10 (Fab, part only; not given: carrier Fab4D5 heavy and light chains, not shown: another chain or arm of the molecule; large carriers)
peptide: {Fab4D5 heavy chain (…CDKTH)}-DICLPRWGCLW
modifications: disulfide 3-9
B4: AB.Fab4D5-H11 (Fab, part only; not given: Carrier Fab (trastuzumab), not shown: another chain or arm of the molecule; large carriers)
peptide: {Fab4D5 heavy chain (…CDKTH)}-DICLPRWGCL
modifications: disulfide 3-9

What was measured:
[1] = target: rabbit albumin (rabbit) (UniProt P49065); assay: direct binding ELISA, immobilized albumin
[2] = target: mouse albumin (mouse) (UniProt P07724); assay: solution binding ELISA; end of the range tied by Table 14 (41 nM)
[3] = target: rat albumin (rat) (UniProt P02770); assay: direct binding ELISA, immobilized albumin
[4] = target: mouse albumin (mouse) (UniProt P07724); assay: solution binding ELISA (Scatchard)
[5] = target: rat albumin (rat) (UniProt P02770); assay: solution binding ELISA (Scatchard)
[6] = target: mouse albumin (mouse) (UniProt P07724); assay: direct binding ELISA, immobilized albumin
[7] = target: rat albumin (rat) (UniProt P02770); assay: Kd for albumin as listed with the PK data (solution binding ELISA)

rabbit albumin (rabbit), sequence (P49065 25-608 limits assumed): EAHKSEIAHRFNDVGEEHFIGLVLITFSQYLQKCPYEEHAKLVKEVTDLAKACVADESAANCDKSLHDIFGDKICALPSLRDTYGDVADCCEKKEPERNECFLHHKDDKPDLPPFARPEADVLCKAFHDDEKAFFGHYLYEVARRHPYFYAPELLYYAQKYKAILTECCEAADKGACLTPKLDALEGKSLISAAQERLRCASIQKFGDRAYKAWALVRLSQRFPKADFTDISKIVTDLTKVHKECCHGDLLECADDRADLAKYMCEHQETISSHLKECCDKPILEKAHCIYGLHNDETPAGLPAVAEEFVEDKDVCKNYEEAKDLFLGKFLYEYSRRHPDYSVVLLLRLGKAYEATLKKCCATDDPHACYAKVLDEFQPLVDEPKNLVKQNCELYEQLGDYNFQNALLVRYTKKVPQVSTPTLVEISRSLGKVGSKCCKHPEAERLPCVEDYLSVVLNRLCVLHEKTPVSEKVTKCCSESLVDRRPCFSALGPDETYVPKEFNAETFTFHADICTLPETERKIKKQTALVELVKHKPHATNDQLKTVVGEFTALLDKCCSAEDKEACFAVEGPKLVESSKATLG
rat albumin (rat), sequence (P02770 25-608 limits assumed): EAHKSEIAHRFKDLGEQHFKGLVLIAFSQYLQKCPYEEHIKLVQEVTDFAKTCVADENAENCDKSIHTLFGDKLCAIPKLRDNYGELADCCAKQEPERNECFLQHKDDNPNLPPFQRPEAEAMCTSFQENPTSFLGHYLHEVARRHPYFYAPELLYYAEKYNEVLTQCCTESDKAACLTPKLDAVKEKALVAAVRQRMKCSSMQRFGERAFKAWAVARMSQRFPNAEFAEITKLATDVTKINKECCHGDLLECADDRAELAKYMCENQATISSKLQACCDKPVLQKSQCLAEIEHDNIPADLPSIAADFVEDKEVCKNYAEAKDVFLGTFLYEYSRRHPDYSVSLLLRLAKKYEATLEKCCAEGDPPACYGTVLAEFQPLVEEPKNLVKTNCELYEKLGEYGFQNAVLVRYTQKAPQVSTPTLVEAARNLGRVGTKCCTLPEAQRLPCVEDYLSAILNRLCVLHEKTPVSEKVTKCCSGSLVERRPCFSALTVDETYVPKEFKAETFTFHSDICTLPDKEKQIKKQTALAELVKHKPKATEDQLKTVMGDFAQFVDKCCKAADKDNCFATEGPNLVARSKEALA
mouse albumin (mouse), sequence (P07724 25-608 limits assumed): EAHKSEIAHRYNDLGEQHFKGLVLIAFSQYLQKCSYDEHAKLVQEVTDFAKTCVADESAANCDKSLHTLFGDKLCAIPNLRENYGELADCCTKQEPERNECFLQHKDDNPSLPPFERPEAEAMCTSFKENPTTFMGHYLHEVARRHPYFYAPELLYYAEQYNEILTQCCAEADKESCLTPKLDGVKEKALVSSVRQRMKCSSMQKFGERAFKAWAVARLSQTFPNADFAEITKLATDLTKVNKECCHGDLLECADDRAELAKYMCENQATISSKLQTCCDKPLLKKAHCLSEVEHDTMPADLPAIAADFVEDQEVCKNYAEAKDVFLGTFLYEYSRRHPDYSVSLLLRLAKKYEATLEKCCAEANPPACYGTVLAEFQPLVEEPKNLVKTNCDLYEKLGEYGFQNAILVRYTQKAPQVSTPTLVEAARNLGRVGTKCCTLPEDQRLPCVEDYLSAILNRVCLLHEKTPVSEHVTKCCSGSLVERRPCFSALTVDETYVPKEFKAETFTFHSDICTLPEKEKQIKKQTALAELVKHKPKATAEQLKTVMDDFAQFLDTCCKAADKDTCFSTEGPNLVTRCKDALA

Binder | EC50 [1] [nM] | Kd [2] [nM] | EC50 [3] [nM] | Kd [4] [nM] | Kd [5] [nM] | EC50 [6] [nM] | Kd [7] [nM]
B1 | 500 | – | – | – | – | – | –
B2 | 500 | 40 | – | – | – | – | –
B3 | > 2000 | – | 8 | – | – | – | –
B4 | > 2000 | – | > 1000 | 1250 | 2430 | > 2000 | 2500

Reference: patent publication US20070202045A1
